From article PMC10484726, “Archaeal Hel308 suppresses recombination through a catalytic switch that controls DNA annealing”

Molecular target: T1, Mth-Hel308 wild type (Methanothermobacter thermautotrophicus, UniProt O26901 1-690)
T1 sequence: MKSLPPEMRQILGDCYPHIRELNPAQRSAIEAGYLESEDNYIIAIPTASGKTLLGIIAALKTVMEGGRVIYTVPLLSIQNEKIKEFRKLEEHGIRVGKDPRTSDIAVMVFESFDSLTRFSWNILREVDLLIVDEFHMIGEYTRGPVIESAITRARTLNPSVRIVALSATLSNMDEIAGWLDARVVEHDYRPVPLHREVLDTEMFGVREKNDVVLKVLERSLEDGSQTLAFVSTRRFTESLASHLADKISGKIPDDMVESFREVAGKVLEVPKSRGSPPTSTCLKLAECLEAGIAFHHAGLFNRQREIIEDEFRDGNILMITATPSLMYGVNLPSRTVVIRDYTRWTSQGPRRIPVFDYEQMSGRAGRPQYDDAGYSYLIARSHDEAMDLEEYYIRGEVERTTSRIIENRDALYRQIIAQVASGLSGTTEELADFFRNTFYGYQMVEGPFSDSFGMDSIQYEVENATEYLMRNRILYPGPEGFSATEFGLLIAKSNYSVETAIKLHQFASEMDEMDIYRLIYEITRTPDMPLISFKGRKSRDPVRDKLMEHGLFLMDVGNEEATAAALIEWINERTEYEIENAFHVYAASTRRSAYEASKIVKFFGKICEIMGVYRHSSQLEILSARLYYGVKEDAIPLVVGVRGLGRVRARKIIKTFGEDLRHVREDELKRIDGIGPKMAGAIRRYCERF
Assay: EMSA; 5 mM EDTA; 25 nM DNA; EMSA: 20 mM Tris-HCl pH 7.5, 100 ug/ml BSA, 7% glycerol, 25 mM DTT, 5 mM EDTA, 25 nM Cy5-DNA; 5% TBE gel; no added salt stated; 37 C 10 min stated for duplex DNA reactions
Details: protein: recombinant; tags: N-terminal His6; label: Cy5 (end label); fork

B1: forked DNA substrate (dsDNA)
DNA 1: GTCGGATCCTCTAGACAGCTCCATGATCACTGGCACTGGTAGAATTCGGC
DNA 2: CAACGTCATAGACGATTACATTGCTACATGGAGCTGTCTAGAGGATCCGA
  Kd: 68.2 nM
